Reference: patent US20210363269A1 (ALX ONCOLOGY, published 2021)

T1: cynomolgus SIRP-α (cynomolgus monkey, UniProt Q5TFQ8 30-148 (human entry), limits assumed)
T1 construct: also called cyno1
T1 chain: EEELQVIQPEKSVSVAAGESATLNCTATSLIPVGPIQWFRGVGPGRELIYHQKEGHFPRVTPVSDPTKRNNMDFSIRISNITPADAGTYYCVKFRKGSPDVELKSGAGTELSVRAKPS

T2: BALBc mouse SIRP-α (mouse (BALB/c strain))
T2 chain: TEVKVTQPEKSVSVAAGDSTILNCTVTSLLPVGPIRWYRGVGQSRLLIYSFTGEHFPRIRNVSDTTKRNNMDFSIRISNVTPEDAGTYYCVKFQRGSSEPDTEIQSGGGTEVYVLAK

T3: C57BL/6 mouse SIRP-α D1 domain (mouse (C57BL/6 strain), UniProt P97797 32-148)
T3 sequence: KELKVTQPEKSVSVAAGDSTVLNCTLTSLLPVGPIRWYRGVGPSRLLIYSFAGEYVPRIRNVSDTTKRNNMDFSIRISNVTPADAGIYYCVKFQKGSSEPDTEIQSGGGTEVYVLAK

T4: cynomolgus SIRP-α D1 domain (cyno1) (cynomolgus monkey, UniProt Q5TFQ8 30-148 (human entry), limits assumed)
T4 chain: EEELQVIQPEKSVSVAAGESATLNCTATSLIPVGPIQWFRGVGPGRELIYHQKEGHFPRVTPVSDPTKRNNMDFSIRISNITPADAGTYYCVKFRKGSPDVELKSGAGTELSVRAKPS


How the values were obtained:
cynomolgus SIRP-α [1] = biological target: T1, cynomolgus SIRP-α; assay: SPR Koff +/-
Summary of the method: (§1)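 SIRP analytes at nominal, A280-based concentrations were injected in one-shot kinetic mode over purified antibodies that were amine-coupled to a GLC chip or captured by biotinylated Protein A on an NLC chip of a ProteOn XPR36. All runs were at 25° C in PBS pH 7.4 with 0.01% Tween-20. Apparent ka and kd came from a global simple Langmuir fit of double-referenced data, with KD as their ratio kd/ka.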

human SIRP-α v1 [2] = biological target: T5, human SIRP-α v1 (human, UniProt P78324 31-149); assay: SPR
T5 construct: also called Human v1; Human V1
Summary of the method: as §1

human SIRP-α v2 [3] = biological target: T6, human SIRP-α v2 (human); assay: SPR
T6 construct: also called Human v2; Human V2
Summary of the method: as §1

cynomolgus SIRP-α [4] = biological target: T1, cynomolgus SIRP-α; assay: SPR
Summary of the method: as §1

BALBc mouse SIRP-α = biological target: T2, BALBc mouse SIRP-α; assay: SPR
Summary of the method: as §1

human SIRPγ isoform 1 [5] = biological target: T7, human SIRPγ isoform 1 (human, UniProt Q9P1W8 29-147); assay: SPR
T7 construct: also called Gamma; Human SIRPg
Summary of the method: as §1
T7 sequence (Q9P1W8 29-147 limits assumed): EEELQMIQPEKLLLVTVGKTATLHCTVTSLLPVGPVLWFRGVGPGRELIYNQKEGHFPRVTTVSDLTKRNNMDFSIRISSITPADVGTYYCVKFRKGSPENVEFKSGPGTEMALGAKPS

human SIRP-α v1 [6] = biological target: T5, human SIRP-α v1; assay: SPR; remark: listed apart in the source
Summary of the method: as §1

human SIRP-α v2 [7] = biological target: T6, human SIRP-α v2; assay: SPR; remark: listed apart in the source
Summary of the method: as §1

[8] = biological target: T3, C57BL/6 mouse SIRP-α D1 domain; assay: SPR
Summary of the method: (§2)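 scFv-Fc antibody clones were captured from pre-filtered culture media onto anti-human IgG Fc, amine-coupled at about 4000 RU on a GLC chip in a ProteOn XPR36 instrument. SIRP analytes were passed over in PBS pH 7.4 with 0.01% Tween-20 at 25° C, and responses were double-referenced against interspot and buffer-blank signals. Curves were fitted to a 1:1 Langmuir model. Dissociation rate constants (koff) were taken from those fits.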

human SIRPγ isoform 1 [9] = biological target: T8, human SIRPγ isoform 1 (human, UniProt Q9P1W8 29-147); assay: SPR, Langmuir fit
T8 construct: also called SIRPg; sirpg
Summary of the method: as §2
T8 sequence (Q9P1W8 29-147 limits assumed): as above

[10] = biological target: T9, human SIRP-α v1 D1 domain (human, UniProt P78324 31-149); assay: SPR, Langmuir fit
T9 construct: also called human v1
Summary of the method: as §2

[11] = biological target: T10, human SIRP-α v2 D1 domain (human); assay: SPR, Langmuir fit
T10 construct: also called human v2
Summary of the method: as §2

[12] = biological target: T4, cynomolgus SIRP-α D1 domain (cyno1); assay: SPR, Langmuir fit
Summary of the method: as §2

T6 sequence (chain, as listed by the source limits assumed): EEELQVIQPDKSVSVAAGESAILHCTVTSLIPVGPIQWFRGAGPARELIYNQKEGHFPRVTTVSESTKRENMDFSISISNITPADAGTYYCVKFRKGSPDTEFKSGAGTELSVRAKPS
T5 sequence (P78324 31-149 limits assumed): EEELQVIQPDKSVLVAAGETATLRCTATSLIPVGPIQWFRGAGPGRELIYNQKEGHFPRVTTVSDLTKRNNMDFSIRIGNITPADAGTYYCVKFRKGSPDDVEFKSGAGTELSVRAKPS
T10 sequence (chain, as listed by the source limits assumed): as the sequence (chain, as listed by the source limits assumed) above
T9 sequence (P78324 31-149 limits assumed): as the sequence (P78324 31-149 limits assumed) above

Binder | binding result (cynomolgus SIRP-α [1]) | koff (human SIRP-α v1 [2]) [s⁻¹] | koff (human SIRP-α v2 [3]) [s⁻¹] | koff (cynomolgus SIRP-α [4]) [s⁻¹] | koff (BALBc mouse SIRP-α) [s⁻¹] | koff (human SIRPγ isoform 1 [5]) [s⁻¹] | Kd (human SIRP-α v1 [6]) [nM] | Kd (human SIRP-α v2 [7]) [nM] | koff (human SIRPγ isoform 1 [9]) [s⁻¹] | koff [10] [s⁻¹] | koff [11] [s⁻¹] | koff [12] [s⁻¹] | binding result [8]
Hum3/AB27_HC_wt (antibody, V domains shown) VH: DVQLVESGGGVVRPGESLRLSCAVSGFRFSSYAMSWVRQAPGKGLEWVSGISSGGDTYYVDSVKGRFTISRDNSKNTLYLQVNSLTAEDTAIYYCARETWNHLFDYWGLGTLVTVSS VL: SYELTQPPSVSVSPGQTARITCSGGDYYSTYYAWYQQKPGQAPVTVIHSDDKRPSDIPERFSGSSSGTTVTLTISGVQAEDEADYYCGGYDGRTYINTFGGGTKLTVL | – | 0.000216 | 0.000396 | 0.000464 | 0.000202 | 0.000207 | – | – | – | – | – | – | –
antibody 27 (antibody, V domains shown, also called AB27; S27) VH: DVQLVESGGGVVRPGESLRLSCAVSGFRFSSYAMSWVRQAPGKGLEWVSGISSGGDTYYVDSVKGRFTISRDNSKNTLYLQVNSLTAEDTAIYYCARETWNHLFDYWGLGTLVTVSS VL: ALTQPASVSADLGETVKITCSGGDSSSHYYGWYQQKSPGSAPVTVIYSDDERPSDIPSRFSGSASGSTATLTITGVRVEDEAIYYCGAYDGSTYANTFGAGTTLTVL | – | 0.000315 | 0.000579 | 0.000683 | 0.005 | 0.000407 | 0.0215 | – | – | – | – | – | –
antibody 25 (antibody, V domains shown, also called AB25; S25) VH: DVQLVESGGGVVRPGESLRLSCEASGFTFSSNAMSWVRQAPGKGLEWVAGISSGSDTYYGDSVKGRLTISRDNSKNILYLQMNSLTAEDTAVYYCARETWNHLFDYWGLGTLVTVSS VL: ALTQPASVSANPGETVEITCSGGSYSSYYYAWYQQKSPGSAPVTLIYSDDKRPSNIPSRFSGSASGSTATLTITGVRAEDEAVYFCGGYDQSSYTNPFGAGTTLTVL | – | 0.000165 | 0.000353 | 0.000394 | 0.00178 | 0.000203 | < 0.001 | < 0.001 | – | – | – | – | –
S218 (scFv, V domains shown, scFv-Fc format (VL-linker-VH on human IgG1 Fc)) VH: DVQLVESGGGVVRPGESLTLSCTASGFTFTSSTMNWVRQAPGEGLDWVSSISTSGVITYYADSVKGRATISRDNSKNTLYLRLFSLRADDTAIYYCATDTFDHWGPGTLVTVSS VL: ALTQPASVSANPGETVKITCFGSSGNYGWFQQKSPGSAPVTVIHYNNKRPSDIPSRFSGSKSGSTGTLTITGVRAEDEAVYFCGAWETGSATFGAGTTLTVL | – | – | – | – | – | – | – | – | 2.12e-05 | 7.06e-05 | 5.47e-05 | 2.49e-05 | no binding (tested: Koff > 5 × 10^3 (legend))
Hum1/AB21_HC_wt (antibody, V domains shown) VH: DVQLVESGGGVVRPGESLRLSCAASGFTFSSNAMSWVRQAPGKGLEWLAGISAGGSDTYYPASVKGRFTISRDNSKNTLYLQMNTLTAEDTAVYYCARETWNHLFDYWGLGTLVTVSS VL: SYELTQPPSVSVSPGQTARITCSGGSYSSYYYAWYQQKPGQAPVTLIYSDDKRPSNIPERFSGSSSGTTVTLTISGVQAEDEADYYCGGYDQSSYTNPFGGGTKLTVL | – | 0.000193 | 0.000303 | 0.000395 | 0.00291 | 0.000188 | – | – | – | – | – | – | –

More lines, main results first:

binding result (cynomolgus SIRP-α [1]) | koff (human SIRP-α v1 [2]) [s⁻¹] | koff (human SIRP-α v2 [3]) [s⁻¹] | koff (cynomolgus SIRP-α [4]) [s⁻¹] | koff (BALBc mouse SIRP-α) [s⁻¹] | koff (human SIRPγ isoform 1 [5]) [s⁻¹] | Kd (human SIRP-α v1 [6]) [nM] | Kd (human SIRP-α v2 [7]) [nM] | koff (human SIRPγ isoform 1 [9]) [s⁻¹] | koff [10] [s⁻¹] | koff [11] [s⁻¹] | koff [12] [s⁻¹] | Binder | binding result [8]
no binding | – | – | – | – | – | – | – | – | – | – | – | antibody 45 (antibody, V domains shown, also called S45; AB45) VH: AVTLDESGGGLQTPGGALSLVCKASGFTFSSYAMGWVRQAPGKGLEWVAGIDDDGSTANYGPAVKGRATISRDNGQSTVRLQLNNPRAEDSGTYFCAKASVTGWSAHISGRLDTWGHGTEVIVSS VL: ALTQPASVSANPGETVKITCSGGGIYYYGWYQQKSPGSAPVTLIYENDKRPSDIPSRFSGSTSGSTNTFTITGVQAEDEAVYYCGGYDSNTTSGIFGAGTTLTVL | –
– | 0.000124 | 0.000287 | 0.000306 | 0.00205 | 0.000135 | – | – | – | – | – | – | Hum3/AB66_HC_wt (antibody, V domains shown) VH: DVQLVESGGGVVRPGESLRLSCAASGFTFSSYAMSWVRQAPGKGLEWLAGISAGGSDTYYIDSVKGRFTISRDNPKNSLYLQMSSLTAEDTAVYYCARETWNHLFDYWGLGTLVTVSS VL: SYELTQPPSVSVSPGQTARITCSGGDYYSTYYAWYQQKPGQAPVTVIHSDDKRPSDIPERFSGSSSGTTVTLTISGVQAEDEADYYCGGYDGRTYINTFGGGTKLTVL | –
